Measured values from PMC5632219.

Molecular target: HIV-1 glycoprotein gp120 (HIV-1) (UniProt P04578)
Assay: ELISA

recombinant 2G12 mAb (IgG1) (antibody)
EC50: 2.3 pM
